Test results: patent US20200216558A1 (US Dept. of Health and Human Services, published 2020)

T1: recombinant GPC2-hFc fusion protein (human, UniProt Q8N158 24-553)
T1 construct: range 24-553; Made in 293T cells with an IL-2 secretion signal (not part of the secreted protein); biotinylated for the Octet assay; also called GPC2 protein; recombinant human GPC2; not shown: human IgG Fc (hFc) at the C terminus
T1 sequence (looked up): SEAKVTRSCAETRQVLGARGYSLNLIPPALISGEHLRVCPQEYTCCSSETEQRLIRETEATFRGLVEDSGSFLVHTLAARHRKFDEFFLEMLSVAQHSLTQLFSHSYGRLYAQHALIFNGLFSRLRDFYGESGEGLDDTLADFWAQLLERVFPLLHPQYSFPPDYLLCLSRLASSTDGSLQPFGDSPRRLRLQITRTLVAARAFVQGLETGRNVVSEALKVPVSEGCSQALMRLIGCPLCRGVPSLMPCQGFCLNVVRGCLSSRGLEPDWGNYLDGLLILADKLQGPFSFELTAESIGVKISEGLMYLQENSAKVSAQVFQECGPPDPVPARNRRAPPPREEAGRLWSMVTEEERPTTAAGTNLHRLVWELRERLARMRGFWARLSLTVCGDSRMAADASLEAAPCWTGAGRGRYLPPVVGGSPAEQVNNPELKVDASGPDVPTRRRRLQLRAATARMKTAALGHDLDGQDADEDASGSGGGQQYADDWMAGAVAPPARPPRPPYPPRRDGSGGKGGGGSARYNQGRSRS

T2: recombinant human GPC1 (human, UniProt P35052 24-530, limits assumed)
T2 sequence (looked up): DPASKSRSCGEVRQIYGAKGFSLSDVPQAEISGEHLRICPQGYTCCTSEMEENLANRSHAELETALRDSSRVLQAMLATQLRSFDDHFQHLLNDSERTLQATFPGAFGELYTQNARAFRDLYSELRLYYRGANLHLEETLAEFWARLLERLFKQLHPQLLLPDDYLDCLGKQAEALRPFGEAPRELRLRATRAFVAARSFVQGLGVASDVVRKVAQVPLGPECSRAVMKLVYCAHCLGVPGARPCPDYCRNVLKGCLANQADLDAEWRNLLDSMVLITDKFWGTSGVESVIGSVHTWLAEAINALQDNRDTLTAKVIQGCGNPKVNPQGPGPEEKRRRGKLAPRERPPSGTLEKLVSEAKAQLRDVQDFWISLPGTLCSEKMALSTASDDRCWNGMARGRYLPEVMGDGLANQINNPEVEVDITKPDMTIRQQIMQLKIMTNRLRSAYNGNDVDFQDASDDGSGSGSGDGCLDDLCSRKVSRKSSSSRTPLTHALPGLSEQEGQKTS

T3: recombinant mouse GPC2 (mouse, UniProt Q8BKV1 22-556, limits assumed)
T3 sequence (looked up): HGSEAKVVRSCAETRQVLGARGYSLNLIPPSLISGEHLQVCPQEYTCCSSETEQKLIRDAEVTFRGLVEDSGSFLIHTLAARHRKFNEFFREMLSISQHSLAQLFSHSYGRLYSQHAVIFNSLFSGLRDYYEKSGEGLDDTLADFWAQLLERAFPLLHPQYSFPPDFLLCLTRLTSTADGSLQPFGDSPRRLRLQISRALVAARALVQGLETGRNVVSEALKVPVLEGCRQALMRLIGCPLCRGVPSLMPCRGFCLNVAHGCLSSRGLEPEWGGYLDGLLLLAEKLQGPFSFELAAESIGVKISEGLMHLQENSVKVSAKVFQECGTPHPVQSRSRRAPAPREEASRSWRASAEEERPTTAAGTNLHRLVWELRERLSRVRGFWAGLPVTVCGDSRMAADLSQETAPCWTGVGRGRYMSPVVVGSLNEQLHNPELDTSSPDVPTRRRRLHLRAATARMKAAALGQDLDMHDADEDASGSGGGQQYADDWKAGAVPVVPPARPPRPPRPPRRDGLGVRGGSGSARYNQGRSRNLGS


Columns and labels:
[1] = target: T1, recombinant GPC2-hFc fusion protein; test: Octet RED96 biolayer interferometry, biotinylated GPC2-hFc on streptavidin biosensors, LH7 at 1000, 500 and 100 nM
Method: (§1) Briefly, all experiments were performed at 30° C. and reagents were prepared in 0.1% BSA, 0.1% Tween20 PBS, pH 7.4 buffer. […] Data analysis was performed using the Fort\tilde{e}Bio analysis software provided with the instrument.

[2] = target: T1, recombinant GPC2-hFc fusion protein; test: Octet RED96 BLI, biotinylated GPC2-hFc on streptavidin biosensors, 30 °C
Method: as §1

[3] = target: T1, recombinant GPC2-hFc fusion protein; test: monoclonal phage ELISA, coated GPC2-hFc vs BSA
Method: (§2) Both plate and phage were blocked with 3% skim milk in PBS/0.05% Tween-20 for 1 hour at room temperature. Then pre-blocked phage supernatant was added to the plate. Binding was detected by HRP-conjugated mouse anti-M13 antibody (GE Healthcare).

recombinant human GPC1 = target: T2, recombinant human GPC1; test: monoclonal phage ELISA on recombinant glypicans
Method: as §2

recombinant human GPC3 = recombinant human GPC3 (human, UniProt P51654 25-559, limits assumed); test: monoclonal phage ELISA on recombinant glypicans
recombinant human GPC3, sequence (P51654 25-559 limits assumed): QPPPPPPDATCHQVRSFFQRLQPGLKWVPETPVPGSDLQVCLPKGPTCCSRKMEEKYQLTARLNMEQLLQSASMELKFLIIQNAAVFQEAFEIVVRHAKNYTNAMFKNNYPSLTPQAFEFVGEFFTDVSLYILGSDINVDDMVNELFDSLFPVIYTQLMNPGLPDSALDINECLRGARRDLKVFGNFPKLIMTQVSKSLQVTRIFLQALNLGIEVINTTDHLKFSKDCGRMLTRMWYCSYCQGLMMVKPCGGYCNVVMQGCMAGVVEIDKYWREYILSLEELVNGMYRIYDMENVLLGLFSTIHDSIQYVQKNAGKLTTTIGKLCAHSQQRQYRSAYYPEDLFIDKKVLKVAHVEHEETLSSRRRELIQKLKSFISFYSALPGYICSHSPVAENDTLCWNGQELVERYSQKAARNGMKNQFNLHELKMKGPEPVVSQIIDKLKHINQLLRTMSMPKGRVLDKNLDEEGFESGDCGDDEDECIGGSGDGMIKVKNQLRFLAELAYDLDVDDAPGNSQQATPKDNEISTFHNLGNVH
Method: as §2

recombinant mouse GPC2 = target: T3, recombinant mouse GPC2; test: monoclonal phage ELISA on recombinant glypicans
Method: as §2

[4] = target: T1, recombinant GPC2-hFc fusion protein; test: ELISA on coated GPC2-hFc, detection with anti-Pseudomonas exotoxin A antibody and HRP secondary
[5] = target: T1, recombinant GPC2-hFc fusion protein; test: ELISA, coated GPC2-hFc, detection with anti-Pseudomonas exotoxin A antibody
Method: Then a series of diluted immunotoxins were added to each well. Anti-Pseudomonas exotoxin A antibody (Sigma-Aldrich) and HRP-conjugated secondary antibody (Jackson Immunoresearch) were used to detect binding. EC₅₀ values were determined by Prism 6.0 software (GraphPad).

| Binder | fold OD450 nm on GPC2-hFc over BSA [3] [fold] | binding result (recombinant human GPC1) | binding result (recombinant human GPC3) | binding result (recombinant mouse GPC2) | EC50 [4] [nM] | also measured |
| --- | --- | --- | --- | --- | --- | --- |
| LH7-Fc fusion protein (Fc fusion, Soluble LH7 as used in Octet, flow cytometry and HEK293 Supertopflash assays; also called LH7 antibody; LH7 single domain antibody; not shown: Fc: antibodies were fused with either human Fc (hFc) or mouse IgG Fc (mFc); which one was used in this assay, its subcla) QVQLVQSGGGLVQPGGSLRLSCAASDFYFYDYEMSWVRQAPGKGLEWIGTVSYSGSTYYNPSLKSRVTISRDNSKNTLYLQMNTLRAEDTAMYYCARGYSYDDSRYFDYWGQGTLVTVSS |  |  |  |  |  | koff [1]: 0.00052 s⁻¹; kon [1]: 53100 M⁻¹ s⁻¹; Kd [2]: 9.8 nM |
| VH single domain antibody LH7 (phage clone) (VHH, Human VH single domain) VHH: QVQLVQSGGGLVQPGGSLRLSCAASDFYFYDYEMSWVRQAPGKGLEWIGTVSYSGSTYYNPSLKSRVTISRDNSKNTLYLQMNTLRAEDTAMYYCARGYSYDDSRYFDYWGQGTLVTVSS | ≥ 5 | no binding | no binding | no binding |  |  |
| LH7-PE38 monomeric immunotoxin (other) VH: QVQLVQSGGGLVQPGGSLRLSCAASDFYFYDYEMSWVRQAPGKGLEWIGTVSYSGSTYYNPSLKSRVTISRDNSKNTLYLQMNTLRAEDTAMYYCARGYSYDDSRYFDYWGQGTLVTVSS |  |  |  |  | 18.4 | EC50 (read off the curve) [4]: ~1 µg/mL; EC50 [5]: 18 nM |
| VH single domain antibody LH2 (phage clone) (VHH, Human VH single domain) VHH: QVQLVQSGGGLVQPGGSLRLSCAASDFYFYSYEVSWVRQAPGKALEWIGYIYYSGSTTYNPSLKSRVTISRDNSKNTLYLQMNTLRAEDTAIYYCAVRDNWNDVDYWGQGTLVTVSS | ≥ 5 | no binding | no binding | no binding |  |  |
| LH1-PE38 (other, One of the three immunotoxins of group m11; also called LH1-PE38 immunotoxin) VH: QVQLVQSGGGLVQPGGSLRLSCAASDFDFAAYEMSWVRQAPGKGLEWIGEINHSGSTTYNPSLKSRVTISRDNSKNTLYLQMNTLRAEDTAVYYCATAVHYYDSSGYYHDAFDIWGQGTLVTVSS |  |  |  |  | 4.55 | EC50 (read off the curve) [4]: ~0.2 µg/mL |
| VH single domain antibody LH1 (phage clone) (VHH, Human VH single domain (not camelid)) VHH: QVQLVQSGGGLVQPGGSLRLSCAASDFDFAAYEMSWVRQAPGKGLEWIGEINHSGSTTYNPSLKSRVTISRDNSKNTLYLQMNTLRAEDTAVYYCATAVHYYDSSGYYHDAFDIWGQGTLVTVSS | ≥ 5 | no binding | no binding | no binding |  |  |
| VH single domain antibody LH6 (phage clone) (VHH, Human VH single domain) VHH: QVQLVQSGGGLVQPGGSLRLSCAASDFYFDDYEMSWVRQAPGKGLEWVSTISGSGGGTYYADSVKGRFTISRDNSKNTLYLQMNTLRAEDTATYYCARGYSYDDSRYFDYWGQGTLVTVSS | ≥ 5 | no binding | no binding | binds |  |  |
| VH single domain antibody LH3 (phage clone) (VHH, Human VH single domain) VHH: QVQLVQSGGGLVQPGGSLRLSCAASSFSFADYEMSWVRQAPGKALEWIGRIYTSGSTNYNPSLKSRVTISRDNSKNTLYLQMNTLRAEDTATYYCARGYSGYDGSHYFDYWGQGTLVTVSS | ≥ 5 | binds |  | binds |  |  |
| VH single domain antibody LH4 (phage clone) (VHH, Human VH single domain) VHH: QVQLVQSGGGLVQPGGSLRLSCAASSFYFDDYEMSWVRQAPGKALEWIGRIYTSGSTNYNPSLKSRVTISRDNSKNTLYLQMNTLRAEDTATYYCARGYCSGGSCYFDYWGQGTLVTVSS | ≥ 5 | no binding | no binding | binds |  |  |
| LH4-PE38 (other, One of the three immunotoxins of group m11; also called LH4-PE38 immunotoxin) VH: QVQLVQSGGGLVQPGGSLRLSCAASSFYFDDYEMSWVRQAPGKALEWIGRIYTSGSTNYNPSLKSRVTISRDNSKNTLYLQMNTLRAEDTATYYCARGYCSGGSCYFDYWGQGTLVTVSS |  |  |  |  | 43.9 |  |
